First the molecules themselves.
B1: E3 ubiquitin-protein ligase LNX (Homo sapiens), Q8TBB1 (parent)
chain: MNQPESANDPEPLCAVCGQAHSLEENHFYSYPEEVDDDLICHICLQALLDPLDTPCGHTYCTLCLTNFLVEKDFCPMDRKPLVLQHCKKSSILVNKLLNKLLVTCPFREHCTQVLQRCDLEHHFQTSCKGASHYGLTKDRKRRSQDGCPDGCASLTATAPSPEVSAAATISLMTDEPGLDNPAYVSSAEDGQPAISPVDSGRSNRTRARPFERSTIRSRSFKKINRALSVLRRTKSGSAVANHADQGRENSENTTAPEVFPRLYHLIPDGEITSIKINRVDPSESLSIRLVGGSETPLVHIIIQHIYRDGVIARDGRLLPGDIILKVNGMDISNVPHNYAVRLLRQPCQVLWLTVMREQKFRSRNNGQAPDAYRPRDDSFHVILNKSSPEEQLGIKLVRKVDEPGVFIFNVLDGGVAYRHGQLEENDRVLAINGHDLRYGSPESAAHLIQASERRVHLVVSRQVRQRSPDIFQEAGWNSNGSWSPGPGERSNTPKPLHPTITCHEKVVNIQKDPGESLGMTVAGGASHREWDLPIYVISVEPGGVISRDGRIKTGDILLNVDGVELTEVSRSEAVALLKRTSSSIVLKALEVKEYEPQEDCSSPAALDSNHNMAPPSDWSPSWVMWLELPRCLYNCKDIVLRRNTAGSLGFCIVGGYEEYNGNKPFFIKSIVEGTPAYNDGRIRCGDILLAVNGRSTSGMIHACLARLLKELKGRITLTIVSWPGTFL
partner: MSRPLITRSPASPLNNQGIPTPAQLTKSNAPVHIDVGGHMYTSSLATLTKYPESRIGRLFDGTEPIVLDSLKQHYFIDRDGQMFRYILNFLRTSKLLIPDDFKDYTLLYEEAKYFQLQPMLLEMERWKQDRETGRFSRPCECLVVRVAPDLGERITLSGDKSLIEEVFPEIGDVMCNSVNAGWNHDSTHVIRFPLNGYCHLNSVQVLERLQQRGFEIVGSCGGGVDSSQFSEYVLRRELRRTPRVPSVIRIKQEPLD
B2: Myotubularin-related protein 9 (Homo sapiens), Q96QG7 (parent)
chain: MEFAELIKTPRVDNVVLHRPFYPAVEGTLCLTGHHLILSSRQDNTEELWLLHSNIDAIDKRFVGSLGTIIIKCKDFRIIQLDIPGMEECLNIASSIEALSTLDSITLMYPFFYRPMFEVIEDGWHSFLPEQEFELYSSATSEWRLSYVNKEFAVCPSYPPIVTVPKSIDDEALRKVATFRHGGRFPVLSYYHKKNGMVIMRSGQPLTGTNGRRCKEDEKLINATLRAGKRGYIIDTRSLNVAQQTRAKGGGFEQEAHYPQWRRIHKSIERYHILQESLIKLVEACNDQTHNMDRWLSKLEASNWLTHIKEILTTACLAAQCIDREGASILIHGTEGTDSTLQVTSLAQIILEPRSRTIRGFEALIEREWLQAGHPFQQRCAQSAYCNTKQKWEAPVFLLFLDCVWQILRQFPCSFEFNENFLIMLFEHAYASQFGTFLGNNESERCKLKLQQKTMSLWSWVNQPSELSKFTNPLFEANNLVIWPSVAPQSLPLWEGIFLRWNRSSKYLDEAYEEMVNIIEYNKELQAKVNILRRQLAELETEDGMQESP
B3: Transcription factor RFX3 (Homo sapiens), P48380 (parent)
chain: MQTSETGSDTGSTVTLQTSVASQAAVPTQVVQQVPVQQQVQQVQTVQQVQHVYPAQVQYVEGSDTVYTNGAIRTTTYPYTETQMYSQNTGGNYFDTQGSSAQVTTVVSSHSMVGTGGIQMGVTGGQLISSSGGTYLIGNSMENSGHSVTHTTRASPATIEMAIETLQKSDGLSTHRSSLLNSHLQWLLDNYETAEGVSLPRSTLYNHYLRHCQEHKLDPVNAASFGKLIRSIFMGLRTRRLGTRGNSKYHYYGIRVKPDSPLNRLQEDMQYMAMRQQPMQQKQRYKPMQKVDGVADGFTGSGQQTGTSVEQTVIAQSQHHQQFLDASRALPEFGEVEISSLPDGTTFEDIKSLQSLYREHCEAILDVVVNLQFSLIEKLWQTFWRYSPSTPTDGTTITESSNLSEIESRLPKAKLITLCKHESILKWMCNCDHGMYQALVEILIPDVLRPIPSALTQAIRNFAKSLEGWLSNAMNNIPQRMIQTKVAAVSAFAQTLRRYTSLNHLAQAARAVLQNTSQINQMLSDLNRVDFANVQEQASWVCQCDDNMVQRLETDFKMTLQQQSTLEQWAAWLDNVMMQALKPYEGRPSFPKAARQFLLKWSFYSSMVIRDLTLRSAASFGSFHLIRLLYDEYMFYLVEHRVAQATGETPIAVMGEFGDLNAVSPGNLDKDEGSEVESEMDEELDDSSEPQAKREKTELSQAFPVGCMQPVLETGVQPSLLNPIHSEHIVTSTQTIRQCSATGNTYTAV
partner: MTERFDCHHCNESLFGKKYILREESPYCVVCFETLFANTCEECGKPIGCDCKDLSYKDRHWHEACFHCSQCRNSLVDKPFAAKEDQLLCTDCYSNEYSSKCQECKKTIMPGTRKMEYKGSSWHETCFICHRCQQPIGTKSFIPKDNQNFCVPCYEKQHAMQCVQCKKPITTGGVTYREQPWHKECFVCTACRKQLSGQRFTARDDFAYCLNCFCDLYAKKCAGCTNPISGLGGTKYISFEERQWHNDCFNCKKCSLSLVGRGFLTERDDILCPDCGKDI
B4: Zyxin (Homo sapiens), Q15942 (parent)
chain: MAAPRPSPAISVSVSAPAFYAPQKKFGPVVAPKPKVNPFRPGDSEPPPAPGAQRAQMGRVGEIPPPPPEDFPLPPPPLAGDGDDAEGALGGAFPPPPPPIEESFPPAPLEEEIFPSPPPPPEEEGGPEAPIPPPPQPREKVSSIDLEIDSLSSLLDDMTKNDPFKARVSSGYVPPPVATPFSSKSSTKPAAGGTAPLPPWKSPSSSQPLPQVPAPAQSQTQFHVQPQPQPKPQVQLHVQSQTQPVSLANTQPRGPPASSPAPAPKFSPVTPKFTPVASKFSPGAPGGSGSQPNQKLGHPEALSAGTGSPQPPSFTYAQQREKPRVQEKQHPVPPPAQNQNQVRSPGAPGPLTLKEVEELEQLTQQLMQDMEHPQRQNVAVNELCGRCHQPLARAQPAVRALGQLFHIACFTCHQCAQQLQGQQFYSLEGAPYCEGCYTDTLEKCNTCGEPITDRMLRATGKAYHPHCFTCVVCARPLEGTSFIVDQANRPHCVPDYHKQYAPRCSVCSEPIMPEPGRDETVRVVALDKNFHMKCYKCEDCGKPLSIEADDNGCFPLDGHVLCRKCHTARAQT
partner: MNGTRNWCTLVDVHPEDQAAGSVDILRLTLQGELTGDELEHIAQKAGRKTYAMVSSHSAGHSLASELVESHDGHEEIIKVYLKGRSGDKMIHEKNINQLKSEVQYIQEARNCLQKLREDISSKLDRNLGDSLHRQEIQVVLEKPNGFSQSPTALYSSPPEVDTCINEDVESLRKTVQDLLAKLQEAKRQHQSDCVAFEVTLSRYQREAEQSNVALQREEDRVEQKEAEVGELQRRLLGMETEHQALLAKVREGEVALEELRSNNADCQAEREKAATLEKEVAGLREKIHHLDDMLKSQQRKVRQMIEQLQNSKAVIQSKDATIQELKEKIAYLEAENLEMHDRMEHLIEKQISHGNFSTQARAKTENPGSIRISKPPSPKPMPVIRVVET
B5: E3 ubiquitin-protein ligase LNX (Homo sapiens), Q8TBB1 (parent)
chain: B1 chain
partner: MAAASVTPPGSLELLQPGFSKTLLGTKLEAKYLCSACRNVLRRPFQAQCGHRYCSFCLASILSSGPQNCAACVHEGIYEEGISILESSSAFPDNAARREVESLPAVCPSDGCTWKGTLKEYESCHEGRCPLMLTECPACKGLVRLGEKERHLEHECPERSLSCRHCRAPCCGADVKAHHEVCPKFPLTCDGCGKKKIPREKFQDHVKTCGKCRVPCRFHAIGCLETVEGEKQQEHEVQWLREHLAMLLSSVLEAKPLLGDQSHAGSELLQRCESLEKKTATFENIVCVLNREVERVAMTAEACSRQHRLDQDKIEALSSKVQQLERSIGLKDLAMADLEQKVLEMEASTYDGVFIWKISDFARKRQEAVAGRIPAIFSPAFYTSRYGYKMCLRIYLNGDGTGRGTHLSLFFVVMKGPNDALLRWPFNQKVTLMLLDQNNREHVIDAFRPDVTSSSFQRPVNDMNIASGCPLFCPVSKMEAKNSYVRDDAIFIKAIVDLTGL
B6: Glutaredoxin-3 (Homo sapiens), O76003 (parent)
chain: MAAGAAEAAVAAVEEVGSAGQFEELLRLKAKSLLVVHFWAPWAPQCAQMNEVMAELAKELPQVSFVKLEAEGVPEVSEKYEISSVPTFLFFKNSQKIDRLDGAHAPELTKKVQRHASSGSFLPSANEHLKEDLNLRLKKLTHAAPCMLFMKGTPQEPRCGFSKQMVEILHKHNIQFSSFDIFSDEEVRQGLKAYSSWPTYPQLYVSGELIGGLDIIKELEASEELDTICPKAPKLEERLKVLTNKASVMLFMKGNKQEAKCGFSKQILEILNSTGVEYETFDILEDEEVRQGLKAYSNWPTYPQLYVKGELVGGLDIVKELKENGELLPILRGEN

In one assay the parent is B1. Conditions: with kctd1_human KCTD1, Q719H9.
Regarding E295K, the “effect of a mutation on the interaction” value is “disrupting interaction strength”.

In the next assay the parent is B2. To be noted: with emil1_human EMILIN1, Q9Y6C2.
emil1_human EMILIN1, Q9Y6C2, sequence (Q9Y6C2 whole entry): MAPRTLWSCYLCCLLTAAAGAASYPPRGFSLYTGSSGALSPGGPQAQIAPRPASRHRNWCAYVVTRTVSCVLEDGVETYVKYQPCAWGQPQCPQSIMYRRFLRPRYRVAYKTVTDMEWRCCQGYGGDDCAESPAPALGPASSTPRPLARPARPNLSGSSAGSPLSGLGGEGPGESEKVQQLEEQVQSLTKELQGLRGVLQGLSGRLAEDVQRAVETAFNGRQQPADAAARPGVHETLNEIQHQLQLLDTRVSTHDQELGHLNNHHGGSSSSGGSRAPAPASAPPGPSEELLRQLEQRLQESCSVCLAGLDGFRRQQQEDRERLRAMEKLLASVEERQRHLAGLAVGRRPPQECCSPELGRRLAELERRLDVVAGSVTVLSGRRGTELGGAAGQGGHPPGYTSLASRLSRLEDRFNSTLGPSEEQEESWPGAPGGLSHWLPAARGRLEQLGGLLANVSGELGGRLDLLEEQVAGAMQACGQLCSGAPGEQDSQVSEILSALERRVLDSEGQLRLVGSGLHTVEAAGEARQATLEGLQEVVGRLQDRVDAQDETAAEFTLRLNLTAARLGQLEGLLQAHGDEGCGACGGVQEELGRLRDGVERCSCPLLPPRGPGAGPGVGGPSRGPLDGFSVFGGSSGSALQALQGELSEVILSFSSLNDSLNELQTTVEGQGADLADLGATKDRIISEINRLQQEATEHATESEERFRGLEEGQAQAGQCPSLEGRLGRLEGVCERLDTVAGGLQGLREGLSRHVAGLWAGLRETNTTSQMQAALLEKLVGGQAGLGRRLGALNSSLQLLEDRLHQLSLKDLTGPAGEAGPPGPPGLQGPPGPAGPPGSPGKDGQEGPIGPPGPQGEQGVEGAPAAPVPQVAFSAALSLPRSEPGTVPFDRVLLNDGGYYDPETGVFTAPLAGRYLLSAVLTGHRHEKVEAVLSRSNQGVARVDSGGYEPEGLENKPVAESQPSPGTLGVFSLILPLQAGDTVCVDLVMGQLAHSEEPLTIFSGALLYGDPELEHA
Take R359S: the “effect of a mutation on the interaction” value is on record as “with no effect”.

The variants in a further assay derive from B3. Conditions: with fhl2_human FHL2, Q14192.
Consider Y135D, for which the “effect of a mutation on the interaction” value was “with no effect”.

In another assay the parent is B3. To be noted: with fhl2_human FHL2, Q14192. This is another data set of the same source.
As to S387C, the “effect of a mutation on the interaction” value is on record as “with no effect”.

Variants of B4 are the subject of another assay. To be noted: with tuft1_human TUFT1, Q9NNX1.
Take R167G: the “effect of a mutation on the interaction” value is “with no effect”.

The next assay covers variants of B5. To be noted: with traf2_human TRAF2, Q12933.
For the variant E295K, the “effect of a mutation on the interaction” value was “disrupting interaction strength”.

A further assay covers variants of B6. To be noted: with grn_human GRN.
For P145A, the “effect of a mutation on the interaction” value was “with no effect”.

In another assay the parent is B6. Conditions: with cpin1_human CIAPIN1, Q6FI81.
cpin1_human CIAPIN1, Q6FI81, sequence (Q6FI81 whole entry): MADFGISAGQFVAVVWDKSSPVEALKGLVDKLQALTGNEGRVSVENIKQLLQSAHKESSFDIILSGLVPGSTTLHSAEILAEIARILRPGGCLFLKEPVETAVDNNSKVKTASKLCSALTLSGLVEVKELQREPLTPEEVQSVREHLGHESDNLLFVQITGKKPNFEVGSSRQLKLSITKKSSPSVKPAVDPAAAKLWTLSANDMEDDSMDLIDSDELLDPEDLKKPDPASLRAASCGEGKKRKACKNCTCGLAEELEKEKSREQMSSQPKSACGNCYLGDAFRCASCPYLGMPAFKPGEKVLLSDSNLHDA
P145A: the “effect of a mutation on the interaction” value is “with no effect”.

In the next assay the parent is B6. To be noted: with tmm25_human TMEM25, Q86YD3.
tmm25_human TMEM25, Q86YD3, sequence (Q86YD3 whole entry): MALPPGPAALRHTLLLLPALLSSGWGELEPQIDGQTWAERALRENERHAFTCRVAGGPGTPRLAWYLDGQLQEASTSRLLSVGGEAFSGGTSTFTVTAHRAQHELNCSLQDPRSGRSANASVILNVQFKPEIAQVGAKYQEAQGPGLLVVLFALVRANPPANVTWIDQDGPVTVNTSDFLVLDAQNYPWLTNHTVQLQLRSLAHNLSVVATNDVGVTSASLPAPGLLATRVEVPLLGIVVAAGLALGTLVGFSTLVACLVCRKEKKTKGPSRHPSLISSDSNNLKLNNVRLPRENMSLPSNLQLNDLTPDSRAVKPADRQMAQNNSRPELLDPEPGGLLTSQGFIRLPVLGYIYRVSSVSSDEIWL
For P145A, the “effect of a mutation on the interaction” value is “with no effect”.
